# Source: patent US20140161821A1, “TREATMENT WITH ANTI-PCSK9 ANTIBODIES” (PFIZER INC., priority 2011, published 2014)
# B1: L1L3: humanized (<5% murine residues) monoclonal PCSK9 antagonist antibody that binds to secreted PCSK9; VH SEQ ID NO: 11, VL SEQ ID NO: 12 (antibody, V domains shown)
# VH: QVQLVQSGAEVKKPGASVKVSCKASGYTFTSYYMHWVRQAPGQGLEWMGEISPFGGRTNYNEKFKSRVTMTRDTSTSTVYMELSSLRSEDTAVYYCARERPLYASDLWGQGTTVTVSS
# VL: DIQMTQSPSSLSASVGDRVTITCRASQGISSALAWYQQKPGKAPKLLIYSASYRYTGVPSRFSGSGSGTDFTFTISSLQPEDIATYYCQQRYSLWRTFGQGTKLEIK
# modifications: heavy chain variable region; light chain variable region
# Molecular target: T1, PCSK9 (Homo sapiens, UniProt Q8NBP7)
# T1 construct: PCSK9 antagonist antibody that antagonizes circulating PCSK9; endogenous in cells; host or cells: human subjects in clinical trials (in vivo, circulating PCSK9)
# T1 sequence (Q8NBP7 153-692): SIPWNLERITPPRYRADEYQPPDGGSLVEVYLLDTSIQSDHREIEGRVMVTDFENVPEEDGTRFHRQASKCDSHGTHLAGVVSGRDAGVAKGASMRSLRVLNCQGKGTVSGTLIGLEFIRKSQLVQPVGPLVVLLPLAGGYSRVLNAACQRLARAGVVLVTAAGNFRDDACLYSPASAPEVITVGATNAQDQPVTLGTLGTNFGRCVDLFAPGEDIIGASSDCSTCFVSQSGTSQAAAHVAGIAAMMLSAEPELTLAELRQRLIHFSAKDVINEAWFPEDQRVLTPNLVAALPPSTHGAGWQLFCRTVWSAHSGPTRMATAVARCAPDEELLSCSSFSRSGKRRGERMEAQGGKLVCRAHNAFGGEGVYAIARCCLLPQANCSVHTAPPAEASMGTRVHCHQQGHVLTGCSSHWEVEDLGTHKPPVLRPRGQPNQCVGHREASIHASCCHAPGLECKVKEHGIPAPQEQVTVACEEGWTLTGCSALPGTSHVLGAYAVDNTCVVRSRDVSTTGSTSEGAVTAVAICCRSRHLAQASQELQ
# T1 sequence (Q8NBP7 31-152 partner limits assumed): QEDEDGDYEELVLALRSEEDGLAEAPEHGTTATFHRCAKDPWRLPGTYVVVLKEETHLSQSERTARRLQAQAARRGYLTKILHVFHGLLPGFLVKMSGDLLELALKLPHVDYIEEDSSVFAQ
# Assay: Example 2 clinical study, single escalating IV doses: fasting lipids
# Assay type: in vivo
# Method: The study entailed a randomized, placebo-controlled, ascending, single dose study of L1L3. The subjects, investigator, and site personnel (except site personnel responsible for drug preparation) were blinded to treatment assignments, as was the CRO designee; while the Sponsor clinical research team was unblinded. The study was conducted in 6 planned cohorts of 8 subjects per cohort in an effort to seek a maximum tolerated dose or MTD (total of approximately 48 subjects). […] Doses were administered following an overnight fast as an intravenous infusion over 60 minutes. […] Infusions will be administered as a single infusion over 60 minutes.
# Change in serum lipids (total cholesterol, LDL, HDL, Triglycerides, Non-HDL-C and Apoprotein B) were assessed.
# Collection of fasting lipid profile was performed after at least a 10-hour fast (total cholesterol, LDL, HDL, Non-HDL Cholesterol, Apo B and triglycerides).
molecule,measurement,setting,value
B1,"Fasting apolipoprotein B (apo B), % below baseline","0.3 mg/kg, by day 7",about 25%
same,"Fasting apolipoprotein B (apo B), % below baseline","1 mg/kg, by day 14",about 40%
same,"Fasting apolipoprotein B (apo B), % below baseline","3 mg/kg, by day 14",about 40%
same,"Fasting apolipoprotein B (apo B), % below baseline","3 mg/kg, by day 28",about 50%
same,Fasting LDL-C levels,"6 mg/kg or 12 mg/kg, by day 14 post-dosing",about 55 mg/dL
same,"Fasting apolipoprotein B (apo B), % below baseline","6 mg/kg, by day 14",about 40%
same,"Fasting apolipoprotein B (apo B), % below baseline","6 mg/kg, by day 21",about 50%
same,"Fasting apolipoprotein B (apo B), % below baseline","6 mg/kg, generally, remainder of the study",> 30%
same,LDL-C percentage change from baseline (lowering),"18 mg/kg, FIG. 2",up to 83%
same,Fasting LDL-C levels,"18 mg/kg, by day 14 post-dosing",about 20 mg/dL
same,Fasting LDL-C levels,"1, 3, 6, 12, or 18 mg/kg, by day 14 post-dosing",≤ 70 mg/dL
same,"Fasting apolipoprotein B (apo B), % below baseline","12 or 18 mg/kg, by day 14, baseline about 119 mg/dL",about 50%
same,"Fasting apolipoprotein B (apo B), % below baseline","12 or 18 mg/kg, remainder of the study after day 14",≥ 50%
same,Earliest day LDL-C lowering effects were seen,all dosage groups,3 days
same,Day of maximum percentage LDL-C lowering,"in general, all dosage groups",Day 15 or Day 22
same,Duration of maximum LDL-C lowering effect,single 0.3 mg/kg,7 days
same,"Fasting total cholesterol (TC), % reduced","single 0.3 mg/kg, by about day 9",about 25%
same,Fasting LDL-C levels,"single 0.3 mg/kg, day 7 post-dosing",about 85 mg/dL
same,Fasting LDL-C levels,"single 0.3 mg/kg, until about 10 days post-dosing",below 100 mg/dL
same,Duration of maximum LDL-C lowering effect,single 1.0 mg/kg,14 days
same,"Fasting total cholesterol (TC), % below baseline","single 1 mg/kg, by about day 15",about 36%
same,Fasting LDL-C levels,"single 1 mg/kg, day 14 post-dosing",about 65 mg/dL
same,Fasting LDL-C levels,"single 1 mg/kg, until about 21 days post-dosing",below 100 mg/dL
same,Duration of maximum LDL-C lowering effect,single 3.0 mg/kg,up to 4 weeks
same,"Fasting total cholesterol (TC), % below baseline","single 3 mg/kg, by about day 9",about 30%
same,"Fasting total cholesterol (TC), % below baseline","single 3 mg/kg, by about day 22",about 40%
same,Fasting LDL-C levels,"single 3 mg/kg, day 14 post-dosing",about 70 mg/dL
same,Fasting LDL-C levels,"single 3 mg/kg, day 21 post-dosing",about 60 mg/dL
same,"LDL-C levels, % below baseline","single 3 mg/kg, maintained up to 29 days post administration",> 60%
same,"LDL-C levels, % below baseline","single 3 mg/kg, maintained up to 50 days post administration",> 20%
same,Fasting LDL-C levels,"single 3 mg/kg, until about 36 days post-dosing",below 100 mg/dL
same,"LDL-C levels, % below baseline","single 6 mg/kg or 12 mg/kg, maintained up to 43 days post administration",> 60%
same,Duration of maximum LDL-C lowering effect,"single 6 mg/kg, 12 mg/kg, and 18 mg/kg",more than 6 weeks
same,"Fasting total cholesterol (TC), % below baseline","single 6 mg/kg, by about day 9 until about day 52 post-dosing",≥ 30%
same,"Fasting total cholesterol (TC), % below baseline, in a number of subjects","single 6 mg/kg, by day 30 post-dosing",> 50%
same,Fasting LDL-C levels,"single 6 mg/kg, for about 42 days post-dosing",below 50 mg/dL
same,Fasting LDL-C levels,"single 6 mg/kg, until at least about 57 days post-dosing",below 100 mg/dL
same,Fasting LDL-C levels,"single 12 mg/kg, until at least about 57 days post-dosing (end of study)",≤ 60 mg/dL
same,"LDL-C levels, % below baseline","single 18 mg/kg, maintained at least up to 57 days post administration",> 65%
same,Fasting LDL-C levels,"single 18 mg/kg, until at least about 57 days post-dosing",below 50 mg/dL
same,"Fasting total cholesterol (TC), % below baseline","single 12 or 18 mg/kg, by about day 9, lasting at least to day 57, baseline about 230 mg/dL",≥ 30%
same,"Fasting total cholesterol (TC), % below baseline, in a number of subjects","single 12 or 18 mg/kg, by day 15 post-dosing",> 50%
same,mean percentage change from baseline of fasting LDL-C,"single IV 0.3 mg/kg, visit day 1",0.000%
same,mean percentage change from baseline of fasting LDL-C,"single IV 0.3 mg/kg, visit day 2",−15.8%
same,mean percentage change from baseline of fasting LDL-C,"single IV 0.3 mg/kg, visit day 3",−14.13%
same,mean percentage change from baseline of fasting LDL-C,"single IV 0.3 mg/kg, visit day 4",−30.14%
same,mean percentage change from baseline of fasting LDL-C,"single IV 0.3 mg/kg, visit day 8",−42.86%
same,mean percentage change from baseline of fasting LDL-C,"single IV 0.3 mg/kg, visit day 15",−23.68%
same,mean percentage change from baseline of fasting LDL-C,"single IV 0.3 mg/kg, visit day 22",−11.36%
same,mean percentage change from baseline of fasting LDL-C,"single IV 0.3 mg/kg, visit day 29",−9.12%
same,mean percentage change from baseline of fasting LDL-C,"single IV 1 mg/kg, visit day 1",0.000%
same,mean percentage change from baseline of fasting LDL-C,"single IV 1 mg/kg, visit day 2",−0.33%
same,mean percentage change from baseline of fasting LDL-C,"single IV 1 mg/kg, visit day 3",−9.79%
same,mean percentage change from baseline of fasting LDL-C,"single IV 1 mg/kg, visit day 4",−19.14%
same,mean percentage change from baseline of fasting LDL-C,"single IV 1 mg/kg, visit day 8",−33.33%
same,mean percentage change from baseline of fasting LDL-C,"single IV 1 mg/kg, visit day 15",−50.50%
same,mean percentage change from baseline of fasting LDL-C,"single IV 1 mg/kg, visit day 22",−22.40%
same,mean percentage change from baseline of fasting LDL-C,"single IV 1 mg/kg, visit day 29",−3.36%
same,mean percentage change from baseline of fasting LDL-C,"single IV 3 mg/kg, visit day 1",0.000%
same,mean percentage change from baseline of fasting LDL-C,"single IV 3 mg/kg, visit day 2",−1.97%
same,mean percentage change from baseline of fasting LDL-C,"single IV 3 mg/kg, visit day 3",−13.20%
same,mean percentage change from baseline of fasting LDL-C,"single IV 3 mg/kg, visit day 4",−19.10%
same,mean percentage change from baseline of fasting LDL-C,"single IV 3 mg/kg, visit day 8",−39.78%
same,mean percentage change from baseline of fasting LDL-C,"single IV 3 mg/kg, visit day 15",−57.93%
